According to the DeepSol protein solubility set:

Assay: soluble on expression in E. coli; label from the status in PepcDB or PDB records

Sequence | soluble on expression in E. coli
MGWFGFGGNPTDTPSSSAEVSAAPIDLSAGMNFSVPGFDAPAPEPSVPDHSPFPAAPVLALDQLKSAGVGVSRQMTPYVQMDPSMFASQQPQYIMPEGGVAGKGKFEFALGHIGWAVGGAFGVGCARGALGELMNPETRKMVGKPWMTRMVNATMKHGSGFAQPSGAIVFMYSALEIGLRSVRAEDELNGFGAGALTGAIYRSPHGLKASGVGALVGLGIAAAWTLSSTDSRQRLSEMFSNH | soluble
MCSAGGIRRPIQIEEFKTAISGMSDMELAQIKTEIENSINHLQRSNARLGKYIAKLEGADDRLEADDSDDLENIDSGDLALYKDSVRENEIVLNNYNERVDALEQETVYRKTGHGKSKHEVEAKDNTNKGPDVDMDNSNVDVVTPNSIFI | soluble
MITFRKRVEIEADPAEVFRVISDPWRITEFWKGTRQVIEDGDFYRIRFAFPAWGLMSFHPDAERMTVLTSYLKGPVRGSKVDAVLVSSGKTVLQTEWNVRLSFYLRPFERRIASHFESGADHAINRIKESVEKDKK | not soluble
MNSPPINEFIQAVVYDHSIATGLKACKTDQDIVDYAASKGFIFSSSEWQLYLALDRKTLSDSELAKILVVPVEHWSWAFRKVALWRAMLMDGV | not soluble
GSRTGSESSRPNTALLDPSSPEFSAVVSVGDWLQAIKMDRYKDNFTAAGYTTLEAVVHMSQDDLARIGITAITHQNKILSSVQAMRTQMQQMHG | soluble
TDKVTDADLETLRKLQEEFATELAISRGRVDALEARSADIQAQQFSPNVVLGGQTIFGLAGGFGGNRPGDGEANTIFTYLTQLQLASSFTGKDRFRVGLISGNAANNSFENLQAFNTNMARLAWQGNYDNQVSINSVEYRVAGLGDRVVFTFKPVGFSLGSVLSPNSIYADAGQGAISAFAGSTPILRIGNLDAGLGFDWLLSDEIRLQFAYGTRGSSDSNQGLFGADHSALGLQFLYKPTPSLITGLAYINAYSSDGHLDTGTGSSNADTSGGINEPSQIHALNASMRWQLTNKLVLGAWGGVMVTDSLKSDAVVLSSTYTVSLGIYDPFGRKGDLFGFLYGLPPKLNNGVLIPTADTGNSTHYEVFYRYLVNDNIAITPGFFLVTDPGHISSNNDIFIGAIRTTFNF | not soluble
MITFIGHVSKDVNVVDGKREIAYGGGVVMGAITSSLLGVKTKVITKCTREDVSKFSFLRDNGVEVVFLKSPRTTSIENRYGSDPDTRESFLISAADPFTESDLAFIEGEAVHINPLWYGEFPEDLIPVLRRKVMFLSADAQGFVRVPENEKLVYRDWEMKEKYLKYLDLFKVDSREAETLTGTNDLRESCRIIRSFGAKIILATHASGVIVFDGNFYEASFRSWSLEGRTGRGDTCTAAFLVGFVFKKMSIEKATKFAAAVTSVKMRHPGPLRREDLEAISGDQYF | not soluble
MNTNISGPLISLIVPVYNVKDYLKTCLQSILEQTYKNLEIILVDDGSDDGSSGICDEYARMDQRIKTIHLPHSGVSAARNAGLAAATGELLGFVDSDDWIDHDMYQYLYTLMQEHDADVSACTYLLEQEGRPSKIINNTGKLYVFSRKEIIRALVKNDLVKNYLWAKLFKRKLFDRLSFPVGRVYEDVAVLYKVFYSSQKVVLSCVSKYHYMIHKNESITRGGYDPVKEYHYFLSLYEQDKFIQNAELGGESSVGVLKRGIHLINHTLLCPPSPAFEDIIDETMLKMREYRHITPWQLGPSMSIKRYFMCKHFGFYRMLYRGYRAIFKRKHKLLID | not soluble
MGPQSDSRTLISTYSQQSFQQFSFEYCYHSNTPSLPFSAIFSLYWLLHPFSASTGFSKGPQSDYRTLISTYYQQSFQQFSFEYCYHSNTPSLVSLFFSHLQPFLAIFSHFQPFSASAGFSKGPQSDSRTLISTYSQQSFQQFSFEYCCLSNTRSLVSLF | not soluble
MIISEFDRNNPVLKDQLSDLLRLTWPEEYGDSSAEEVEEMMNPERIAVAAVDQDELVGFIGAIPQYGITGWELHPLVVESSRRKNQIGTRLVNYLEKEVASRGGITIYLGTDDLDHGTTLSQTDLYEHTFDKVASIQNLREHPYEFYEKLGYKIVGVLPNANGWDKPDIWMAKTIIPRPD | soluble
MLLRILIADDEPLARERLRVLLQAQMQHLEVVAEAENGEQVLHDCQRLNPDLVLMDIAMPGIDGLETARYLRYLPACPAVVFCTAYGDHALSAFDVEAIDYLMKPVRAERLHAALKRVQTFVAGRLREPQTSCDETPRTHLCVRIRGGLRLIPLDQVRYLQADEKYVVICHEQGEDLIEESLKSLEKEFSDRFVRIHRNCLIARAELTELRRCSDGQVQAVLRNVVTPLAVSRRCVPLLCDQLRLSAVLTGRWLEHHHHHH | not soluble
MHHHHMITLENPDIKYPLRLIDKEILSHDTRRFRFALPSPQHILGLPIGQHIYLSTRIDGNLVIRPYTPVSSDDDKGFVDLVVKVYFKETHPKFPAGGKMPQYLENMNIGDTIEFRGPNGLLVYQGKGKFAIRADKKSNPVVRTVKSVGMIAGGTGITPMLQVIRAVLKDPNDHTVCYLLFANQSEKDILLRPELEELRNEHSSRFKLWYTVDKAPDAWDYSQGFVNEEMIRDHLPPPGEETLILMCGPPPMIQFACLPNLERVGHPKERCFTF | soluble
MSLSPPILVGFSGPLTGVNSDLGVQGRNGAQLAIEHINAGGGINGRQLELLSMDDGPTAESARDADSALLRQGVVAIIGHMTSNQAIAGLPVVEQHGAVMIAPTVSTPLLTGKRDGFFRLMPDNDSWAYATADYALAQGLKTVSVIYETANQAFAGSFVDGFVTQFEAGGGRLLQRIPFTSAQRDTLEAAAIRAVSTNPDTIVLAASARDTAALAQFIDAHDSPRPVLLSSSWAYTREIFLAGGRAVEGIVFTISYLPDDTREGYLAFRKAYTERFGWEPNFAAALAYESAKVLAAALRRTGGRAQGLREALAAGTPVQGISETVTLDQYGDVQRPPYIVTIRNGEFVSIQEGHHHHHH | soluble
MSLSSAQQWSYVRQLQREIRRSDVLDLPLEKLPVVVFDLETSGFYPDQGDRILSIGAVKVVGLTIQEEETFYSVVHTDTVPPENILELTGLSVEELEAAPPLTSVLESFYAFIRHSTLVAHHASHEKAFMSHVTWQTMKLPFEHRVIDTSFLTKIVAPQELVTLDDCCAYYSIPVQNRHHAFEDSLMTAKLWIAAIAAAREAGFETLRDIYVHLAHQREGHHHHHH | soluble
MGSDKIHHHHHHMQLPNLQSATLLRRYKRFLADVELNNGEILTLHCANTGAMTGCGEKGDTVWFSTSDSKTRKYPHSWELTQLKNGQTVCINTHRSNQLTLEALQNKIITELAEYDEILPEVKYGVENSRIDFLLKGKNLPDCYVEVKSVTFVKNHLGLFPDAVTTRGQKHLRELIAMKKRGHRAVVFFAGLHDGFNRFTVAKSIDPDYAELLQQAVKEGVEVYSYAVKFDFSHQKPTALYLTNLVNYLE | not soluble
MRIDILTLFPGMFSGVLSESILKKAQEKGAVDIRLIDFREFADNKHKTVDDYPYGGGAGMVLKPQPIFDAVEHVTAGSPGARIILLCPQGERYTQKKAEELAKETHLVLICGHYEGYDERIRQYLATDEISIGDYILTGGELGAMVIVDSVVRLLPGVLGNEASPVDDSFSSGLLEYPQYTRPADFRGMKVPDILLSGNHQLIAEWREKESLRRTFLRRPDLLDEYPLTDKQKQWLKEWEKERE | soluble
MGSDKIHHHHHHMDMLSFELIRDGNRPLYEQLYQQIRQEIIEGRLAYGTKLPSKRKLGQFLNLSQTTIELAYQQLVAEGYVESVSRKGYFVLAYEELAYVKTTPLPTSQRSNQQPAMRYDFHPSKIDGSSFPFSRWRKHAKDVIDEQHQSLVSLGHPQGDLSLRLEIATYLYHSRGVVCSPEQIIIGSGVEQLLPHIVFLLGKTTTYGIEDPGYHATRLILKSHERSAVPIPVDQNGLVIPSLVQSPVDVMYVTPAHQFPSGSILSVNRRRQLLNWAAASDRRYIIEDDYDSEFRYSGKSIPSLHSMDSERVIYLSTFSKSLMPSLRIGYMVLPRPLLERYQTEFPYYTCSVSRFDQTILTRFMKEGDFEKHLNRMRKIYRRKLDVVVHALRDVPFLKLTGESAGLHVVLSVSNGMGEQELLRRAKDSSIQVYGLSDYAQLPLSTAYPQIVLGFASLTEQQLMQGLTELVTAWQLK | not soluble
MSLSRTTQLPFAKRQFFQVLARNYSNTQDADLVVIGGGPGGYVAAIKAAQLGMKTVCVEKNATLGGTCLNVGCIPSKALLNNSHYLHMAQHDFAARGIDCTASLNLPKMMEAKSNSVKQLTGGIKQLFKANKVGHVEGFATIVGPNTVQAKKNDGSVETINARNILIASGSEVTPFPGITIDEKQIVSSTGALSLGQVPKKMVVIGAGVIGLELGSVWQRLGAEVTAVEFLGHVGGMGIDGEVSKNFQRSLTKQGFKFLLNTKVMGASQNGSTITVEVEGAKDGKKQTLECDTLLVSVGRRPYTEGLGLSNVQIDLDNRGRVPVNERFQTKVPSIFAIGDVIEGPMLAHKAEDEGILCVEGIAGGPVHIDYNCVPSVVYTHPEVAWVGKAEEQLKQEGVAYKIGKFPFVANSRAKTNNDQEGFVKVLADKQTDRMLGVHIIGPNAGEMIAEATLAMEYGASAEDVARVCHPHPTLSEAFREANLAAYCGKAINNV | not soluble
MEYGDRHITVVDEHGNEQLCEILFTFESDDFGKSYVFYYPVGVEAEDENGETEVHVSAFIPGDENKEGELLPIETEEEWDMIEEVWNTFCAEQEEEDDE | not soluble
MSLGSGHAGKARSAVTTTDADWKPVADALGRSGKLGDNNTAYRINLPRNDLHITSYGVDIKPGLSLGGYAAFARYDNNETLLMGDLVITEEELPKVTDALQAHGIAQTALHKHLLQQDPPVWWTHIHGMGDAARLAQGLKAALDATTIGPPTPPPARQPPVDIDVAGVDQALGRKGTQDGGLMKYSIPRKDTIIEDGHVLPAVSLNLTTVINFQPVGRGRAAINGDFILIAPEVQEVIRAMRAGNITIVELHNHGLTEEPRLFYMHYWAVDDAVTLARALRPAMDATNLQSEGHHHHHH | soluble
MISTPLSKEFEWPAKPVSLELQHQVEQFYYREAQLLDHHAFQAWFALLAEDIHYWMPIRTVRTAREQGLEYVPAGANAHFDDTHATMYGRIRQKTSDLNWAEDPPSRTRHLVSNVIVREMDTPGTLEVASAFLLYRSRLERQVDVFAGERRDVLRIADNPLGFQIAKRTIILDQSTVLANNLSVFF | soluble
MQNTIIQKAVNKDLNSILEITKDALNAMKTMNFHQWDENYPNEIVFQEDIQAQELYVFKENDEILGFICINEKFKPEFYKQVIFNKNYDDKAFYLHRLAVKQNAKGKGVAQKLLNFCENFALENHKASLRADTHSKNFPMNSLFKKLDFNFCGNFDIPNYQDPFLAYEKILNQKAF | not soluble
MNHKALFSGKLVFIGFGSITRATLGLLGNVQRFDVSRIVVIAPGIKGSEPFVKSGVTFIDQALTSDTMESVLGSIVGQGDFIVNLSVNVCSADVIRFAYAHDALYLDTCIEPWGNTYNSPSLTASQRSNYALRDQLRTLGAELGPGPTAVVAHGANPGLISHFLKCALSALAEQLSVAVPRHQGGIDWGNLSMKLGVKVIHIAERDTQRSTRIKSDGEFVNTWSVDGFVSEAGQPAELGWGSHEKNWPPFARHHQFGSDNAIYLDRPGACVSVKTWTPNGGPCNAMLITHNEAISIPELLTVRNEGALSYRPTVHYAYHPCDDALLSINEYTGRGWHAQDRQRIMLDEITPGGIDALGVLIMGHKLNAYWYGSILNIDEARRLAPFNNATSLQVAAGVYSGIIWAIENPDRGIVEPEQMDHQRVMEIALPFLGKFGGVLTDWTPLKTGNALFRKPDADACPWQFEHFTAALEHHHHHH | not soluble
